From US20140242111A1
Blank lines part the entries; values can stand above or below the binder they belong to.

Molecular target: insulin receptor on differentiated 3T3-L1 adipocytes (mouse (murine 3T3-L1 cell line)) (UniProt P15208)
Assay: cell-based or functional assay

Chain of insulin receptor on differentiated 3T3-L1 adipocytes (mouse (murine 3T3-L1 cell line)) (P15208 28-1372): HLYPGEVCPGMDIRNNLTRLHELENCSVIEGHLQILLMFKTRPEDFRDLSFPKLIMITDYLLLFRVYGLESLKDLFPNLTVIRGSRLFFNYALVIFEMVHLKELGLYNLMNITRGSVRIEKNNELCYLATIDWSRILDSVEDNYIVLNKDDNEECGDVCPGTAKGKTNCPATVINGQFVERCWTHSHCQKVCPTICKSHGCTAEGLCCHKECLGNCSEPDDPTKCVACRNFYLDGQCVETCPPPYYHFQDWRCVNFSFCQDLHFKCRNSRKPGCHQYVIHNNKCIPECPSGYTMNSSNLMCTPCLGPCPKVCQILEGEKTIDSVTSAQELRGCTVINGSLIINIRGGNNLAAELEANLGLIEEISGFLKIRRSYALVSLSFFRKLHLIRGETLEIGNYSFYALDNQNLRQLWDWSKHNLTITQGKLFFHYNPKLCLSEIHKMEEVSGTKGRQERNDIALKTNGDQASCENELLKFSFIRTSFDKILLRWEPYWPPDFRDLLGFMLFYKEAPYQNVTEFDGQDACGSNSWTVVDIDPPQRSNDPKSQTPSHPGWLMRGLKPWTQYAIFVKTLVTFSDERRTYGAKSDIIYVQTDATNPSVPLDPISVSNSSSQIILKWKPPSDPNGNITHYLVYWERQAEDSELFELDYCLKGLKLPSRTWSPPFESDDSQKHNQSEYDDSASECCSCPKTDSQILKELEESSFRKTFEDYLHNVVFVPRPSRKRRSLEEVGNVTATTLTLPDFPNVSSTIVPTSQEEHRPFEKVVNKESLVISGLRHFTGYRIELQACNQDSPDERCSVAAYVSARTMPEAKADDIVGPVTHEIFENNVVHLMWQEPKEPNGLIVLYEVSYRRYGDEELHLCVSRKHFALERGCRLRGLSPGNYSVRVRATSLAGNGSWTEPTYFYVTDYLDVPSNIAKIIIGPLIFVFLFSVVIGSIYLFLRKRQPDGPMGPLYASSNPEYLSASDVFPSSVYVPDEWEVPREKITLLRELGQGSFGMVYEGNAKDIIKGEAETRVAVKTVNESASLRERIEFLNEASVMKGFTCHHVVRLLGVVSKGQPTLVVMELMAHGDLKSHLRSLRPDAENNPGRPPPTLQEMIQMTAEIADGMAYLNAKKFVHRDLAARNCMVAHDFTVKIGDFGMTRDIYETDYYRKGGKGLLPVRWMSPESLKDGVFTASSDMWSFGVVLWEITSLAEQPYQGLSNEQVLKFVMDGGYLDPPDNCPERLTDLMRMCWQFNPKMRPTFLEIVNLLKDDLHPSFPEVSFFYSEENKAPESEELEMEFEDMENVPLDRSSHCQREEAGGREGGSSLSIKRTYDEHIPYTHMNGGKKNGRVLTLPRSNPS

Insulin activity (no tag), p-Akt on 3T3-L1 adipocytes; culture: M17 only (nM commercial insulin (equivalent)): < 1
Insulin activity (no tag), p-Akt on 3T3-L1 adipocytes; culture: M17 with 50 mM sodium phosphates (nM commercial insulin (equivalent)): < 1
Insulin activity (no tag), p-Akt on 3T3-L1 adipocytes; culture: M17 with NaOH addition at 1.5 hr (nM commercial insulin (equivalent)): > 1
B1: SCI-57 without RGS-His tag (single-chain insulin analog secreted by L. lactis NZ9000(pNZPnisA:uspSCI-57)) (ligand)
chain: FVNQHLCGSDLVEALYLVCGERGFFYTDPTGGGPRRGIVEQCCHSICSLYQLENYCN

Insulin activity (with RGS-His tag), p-Akt on 3T3-L1 adipocytes; culture: M17 with NaOH addition at 0.5 hr (nM commercial insulin (equivalent)): 1
Insulin activity (with RGS-His tag), p-Akt on 3T3-L1 adipocytes; culture: M17 with NaOH addition at 1.5 hr (nM commercial insulin (equivalent)): 1
Insulin activity (with RGS-His tag), p-Akt on 3T3-L1 adipocytes; culture: M17 with NaOH addition at 2.5 hr (nM commercial insulin (equivalent)): < 1
Insulin activity (with RGS-His tag), p-Akt on 3T3-L1 adipocytes; culture: M17 with NaOH addition every hour (nM commercial insulin (equivalent)): 1
p-Akt(Ser473) Western blot on differentiated 3T3-L1 adipocytes, quantified from three independent experiments; supernatant of induced culture treated with NaOH (scale: nM commercial insulin): 1
B2: RGS-His-tagged SCI-57 (single-chain insulin analog secreted by L. lactis NZ9000(pNZPnisA:uspSCI-57his), usp45 signal peptide cleaved) (ligand)
chain: FVNQHLCGSDLVEALYLVCGERGFFYTDPTGGGPRRGIVEQCCHSICSLYQLENYCNRGSHHHHHH
